Experimental data: US20230074793A1 (Xencor, published 2023)

Target: PD1 (programmed cell death protein 1) (human, UniProt Q15116 25-288)
Assay: cell-based or functional assay

Sequence of PD1 (programmed cell death protein 1) (Q15116 25-288): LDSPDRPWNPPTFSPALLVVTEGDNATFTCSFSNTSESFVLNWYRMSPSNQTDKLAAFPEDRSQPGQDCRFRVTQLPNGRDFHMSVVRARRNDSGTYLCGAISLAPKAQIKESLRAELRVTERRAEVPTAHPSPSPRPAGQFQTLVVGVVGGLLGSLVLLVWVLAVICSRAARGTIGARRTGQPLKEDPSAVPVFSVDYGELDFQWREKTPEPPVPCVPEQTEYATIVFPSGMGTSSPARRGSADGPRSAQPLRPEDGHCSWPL

B1: XmAb®20717 (bispecific antibody, human IgG1, kappa)
heavy: not shown
scFv: EIVLTQSPATLSASPGERVTLTCRASQSVGNDVAWYQQKPGQAPRLLINYASHRYTGVPDRFTGSGYGTEFTLTISSVQSEDFGVYYCQQDFSSPRTFGGGTKVEIKGKPGSGKPGSGKPGSGKPGSEVQLVESGGGLVKPGGSLRLSCVASGFTFSNYWMNWVRQAPGKGLEWVAEIRLYSNNYATHYAESVKGRFTISRDDSKSTLYLQMNNLKTEDTGVYYCTRYYGNYGGYFDVWGRGTLVTVSSEPKSSDKTHTCPPCPAPPVAGPSVFLFPPKPKDTLMISRTPEVTCVVVDVKHEDPEVKFNWYVDGVEVHNAKTKPREEQYNSTYRVVSVLTVLHQDWLNGKEYKCKVSNKALPAPIEKTISKAKGQPREPQVYTLPPSREQMTKNQVKLTCLVKGFYPSDIAVEWESNGQPENNYKTTPPVLDSDGSFFLYSKLTVDKSRWQQGNVFSCSVLHEALHSHYTQKSLSLSPGK
light: not shown
IL-2 secretion (ELISA of culture supernatants) from SEB-stimulated human PBMC treated 24 hours, versus anti-RSV isotype-control bivalent antibody XENP15074: 4.1 fold | IL-2 secretion (ELISA) from SEB-stimulated human PBMC, versus a mixture of the monovalent component antibodies XENP20111 (anti-PD1 scFv-Fc) and XENP20059 (anti-CTLA4 Fab-Fc): 1.6 fold | IL-2 secretion (ELISA) from SEB-stimulated human PBMC, versus the bivalent anti-PD1 antibody XENP16432: 1.5 fold
